Measured values as given in patent publication US20100204147A1, “Methods For Delivering Thymosin Beta 4, Analogues, Isoforms and Other Derivatives” (REGENERX BIOPHARMACEUTICALS, INC., priority 2003, published 2010).

Columns and labels:
fibrinogen = target: T1, fibrinogen (Homo sapiens, UniProt P02671); experiment: Factor XIIIa-mediated incorporation of FITC-labeled thymosin β4 into fibrinogen (spectrophotometric); format: biochemical; conditions: fibrinogen 9 μM, thymosin β4 30 μM, factor XIIIa, 4 hours, 37° C.
T1 construct: purchased Enzyme Research Laboratories (South Bend, Ind.)
T1 sequence (P02671 20-644 isoform P02671-2 limits assumed): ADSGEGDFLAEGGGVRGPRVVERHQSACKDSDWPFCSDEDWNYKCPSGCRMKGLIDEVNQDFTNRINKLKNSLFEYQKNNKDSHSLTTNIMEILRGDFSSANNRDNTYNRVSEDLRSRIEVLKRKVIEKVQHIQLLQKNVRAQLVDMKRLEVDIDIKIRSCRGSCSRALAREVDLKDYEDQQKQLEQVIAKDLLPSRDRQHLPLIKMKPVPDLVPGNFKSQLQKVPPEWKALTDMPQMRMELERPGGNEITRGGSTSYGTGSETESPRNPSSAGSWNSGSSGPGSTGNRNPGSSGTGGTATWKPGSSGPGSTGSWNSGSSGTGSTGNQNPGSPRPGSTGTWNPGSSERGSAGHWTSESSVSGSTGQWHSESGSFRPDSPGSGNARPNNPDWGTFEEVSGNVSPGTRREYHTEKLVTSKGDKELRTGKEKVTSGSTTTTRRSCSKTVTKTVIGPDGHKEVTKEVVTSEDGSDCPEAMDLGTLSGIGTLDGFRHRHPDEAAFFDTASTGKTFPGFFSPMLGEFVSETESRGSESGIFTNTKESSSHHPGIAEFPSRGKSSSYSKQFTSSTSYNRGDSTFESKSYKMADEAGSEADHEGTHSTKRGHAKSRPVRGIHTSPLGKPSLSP
T1 sequence (P02675 31-491 partner): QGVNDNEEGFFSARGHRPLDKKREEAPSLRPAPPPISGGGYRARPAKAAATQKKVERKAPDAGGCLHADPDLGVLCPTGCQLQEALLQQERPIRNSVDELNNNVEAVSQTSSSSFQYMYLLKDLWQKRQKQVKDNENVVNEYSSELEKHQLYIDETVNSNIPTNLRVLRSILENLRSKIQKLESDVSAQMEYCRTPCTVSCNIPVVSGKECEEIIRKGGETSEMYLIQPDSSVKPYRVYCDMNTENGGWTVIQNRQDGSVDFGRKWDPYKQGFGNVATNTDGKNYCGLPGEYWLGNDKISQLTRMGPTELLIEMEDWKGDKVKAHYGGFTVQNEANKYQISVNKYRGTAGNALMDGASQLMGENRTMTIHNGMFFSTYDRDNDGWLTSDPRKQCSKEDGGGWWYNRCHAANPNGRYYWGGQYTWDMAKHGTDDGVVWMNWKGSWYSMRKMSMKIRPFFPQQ
T1 sequence (P02679 27-437 isoform P02679-2 partner limits assumed): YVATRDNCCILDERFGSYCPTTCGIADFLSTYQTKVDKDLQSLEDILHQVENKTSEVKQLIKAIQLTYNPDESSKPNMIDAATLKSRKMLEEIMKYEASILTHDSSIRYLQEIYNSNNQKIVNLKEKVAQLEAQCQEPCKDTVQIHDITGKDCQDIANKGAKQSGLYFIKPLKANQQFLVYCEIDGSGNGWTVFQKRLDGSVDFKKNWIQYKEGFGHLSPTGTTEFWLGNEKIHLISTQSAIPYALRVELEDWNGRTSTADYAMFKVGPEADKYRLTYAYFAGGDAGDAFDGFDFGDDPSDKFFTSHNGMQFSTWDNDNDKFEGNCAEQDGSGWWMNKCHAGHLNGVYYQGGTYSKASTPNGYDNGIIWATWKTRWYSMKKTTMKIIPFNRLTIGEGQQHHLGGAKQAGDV
Description: (§1) Reactions of incorporation of FITC-labeled and unlabeled thymosin β4 into fibrinogen and fibrin were performed in Eppendorf tubes containing a mixture of fibrinogen at 3 mg/mL (9 μM) and thymosin β4 or FITC-labeled thymosin β4 at […] (30 μM) in 100 μL TBS with 2.5 mM CaCl2. The reactions were initiated by addition of FXIIIa(Ca) or FXIIIa(Thr) to final concentration of 30 μg/mL. The final concentration of thrombin in the FXIIIa(Thr)-containing mixtures was made at 2.5 NIH u/mL, sufficient to rapidly form fibrin clot which was observed visually. The reactions with FITC-labeled thymosin β4 lasted for 4 hours at 37° C. in the dark and were stopped by heat inactiviation of the enzymes in boiling water for 5 min during fibrinogen and fibrin denatured and precipitated. The pellets were centrifuged and washed 3 times in TBS and then solubilized. The amounts of fibrin(ogen) and FITC-labeled thymosin β4 in the solubilized pellet were determined spectrophotomertrically using absorption molar coefficients E280,1%=15.0 and ε495=72,000 M^−1cm^−1, respectively. To prepare samples with unlabeled thymosin β4 for analysis by SDS-PAGE and Western blot the reaction mixtures at the indicated time were heat-inactivated as above and solubilized by addition of sample buffer (Invitrogen) containing SDS and reducing agent.

fibrin = target: T2, fibrin (Homo sapiens, UniProt P02671); experiment: Factor XIIIa-mediated incorporation of FITC-labeled thymosin β4 into fibrin (spectrophotometric); format: biochemical; conditions: fibrinogen 9 μM, thymosin β4 30 μM, factor XIIIa with thrombin, 4 hours, 37° C.
T2 construct: purchased Enzyme Research Laboratories (South Bend, Ind.); host or cells: fibrin generated in the well or tube from the purchased fibrinogen with bovine thrombin
T2 sequence (P02671 36-629): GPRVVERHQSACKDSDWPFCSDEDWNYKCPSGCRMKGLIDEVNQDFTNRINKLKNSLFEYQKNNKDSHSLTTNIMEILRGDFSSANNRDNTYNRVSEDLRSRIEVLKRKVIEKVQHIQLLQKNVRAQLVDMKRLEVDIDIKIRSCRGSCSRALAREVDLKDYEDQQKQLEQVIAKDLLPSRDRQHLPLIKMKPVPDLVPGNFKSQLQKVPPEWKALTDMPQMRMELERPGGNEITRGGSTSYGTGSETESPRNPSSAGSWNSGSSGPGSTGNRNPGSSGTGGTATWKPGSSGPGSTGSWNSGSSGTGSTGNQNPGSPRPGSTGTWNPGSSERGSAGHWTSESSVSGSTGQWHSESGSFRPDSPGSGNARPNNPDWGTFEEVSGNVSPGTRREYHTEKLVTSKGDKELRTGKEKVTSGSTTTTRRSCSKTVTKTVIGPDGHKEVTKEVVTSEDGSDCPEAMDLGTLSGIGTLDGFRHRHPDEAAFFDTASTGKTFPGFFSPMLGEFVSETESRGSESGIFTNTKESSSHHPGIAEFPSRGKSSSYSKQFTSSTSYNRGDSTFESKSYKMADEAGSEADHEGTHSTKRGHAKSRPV
T2 sequence (P02675 45-491 partner): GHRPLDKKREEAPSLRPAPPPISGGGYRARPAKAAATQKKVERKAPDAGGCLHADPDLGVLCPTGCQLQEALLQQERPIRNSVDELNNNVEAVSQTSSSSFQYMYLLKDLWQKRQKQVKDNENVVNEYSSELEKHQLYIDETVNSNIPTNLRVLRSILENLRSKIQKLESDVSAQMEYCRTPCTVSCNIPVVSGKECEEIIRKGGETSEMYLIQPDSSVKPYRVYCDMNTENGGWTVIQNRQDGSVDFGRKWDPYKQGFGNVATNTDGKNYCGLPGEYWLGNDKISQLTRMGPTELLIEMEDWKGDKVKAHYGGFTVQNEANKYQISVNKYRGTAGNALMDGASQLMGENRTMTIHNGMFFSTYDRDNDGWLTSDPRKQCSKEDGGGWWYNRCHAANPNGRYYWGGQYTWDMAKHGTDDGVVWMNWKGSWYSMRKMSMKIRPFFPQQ
T2 sequence (P02679 27-437 isoform P02679-2 partner): T1 sequence (P02679 27-437 isoform P02679-2 partner limits assumed)
Description: as §1

Substance: FITC-thymosin β4: Fluorescence labeled thymosin β4 prepared by reaction with fluorescein isothiocyanate; 0.9 mole of FITC per mole of thymosin β4 [reference compound]
- degree of incorporation into fibrinogen (fibrinogen): about 0.2 moles per mole
- degree of incorporation into fibrin (fibrin): ~0.4 moles per mole
